The RNAGym collection of RNA variant scans (doi:10.1073/pnas.2313332121)

B1: TPR t1 (parent)
chain: GACCAAUCUGCCCUCAGAGCUCGAGAACAUCUUCGGAUGCAGAGGAGGCAGGCUUCGGUGGCGCGAUAGCGCCAACGUCCUCAACCUCCAAUGCAUCCCACCACAUGAUGAUGCCUGAAGAGCCUUGGUUUUUUG

Variants of: B1
Assay: polymerase ribozyme fitness, log enrichment relative to wild type (log ratio); higher = more active; in vitro selection for triplet polymerase activity
Method in brief: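 Mutant libraries were PCR-built and transcribed for each subunit of a heterodimeric triplet polymerase ribozyme and selected for one round in triplicate at −7 °C, frozen, before gel excision of extended constructs and streptavidin-bead capture. Input and output libraries were Illumina-sequenced, keeping genotypes with ≥10 input reads and ≥1 read per output. Fitness is a logarithmic ratio of genotype to wild-type enrichment, in base 2, using inverse-variance-weighted replicate averages.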

Variant | polymerase ribozyme fitness (log ratio)
C31U A37U | -4.07
C31U C89U U96A U106G U112A U130C | -4.19
A29U C88U | -1.36
C28U A83C | -2.54
A27U G61A C86U | -2.19
C28U C80A | -5.53
A29G C40A A41U U92G | -4.59
C28A G44U U78G G113A | -4.24
A29G A37G A84G G110U A121G | -3.06
U30A C104U A121C | -4.08
U30C C62U U78A U106C A121U | -3.04
C31U A68G | -6.34
A29U G48A G63C A111C | -2.36
C31A G61A C88U | -5.76
U30C C40U C53G C56G C62U C76A | -5.08
A29U A83U C86A C114A A118U | -3.87
C31A A43G U59G C98G A100G A111G | -6.13
C28U C49A G61U C86U | -2.72
A29U C53A U129G | -2.03
A29G C102A | -4.16
A29G C101G | -4.66
C28U G45U C114U | -4.18
A27U C56G A91G U131A U133G | -5.19
A29C C53G A111U | -1.63

Variant | polymerase ribozyme fitness (log ratio)
C28U G42C | -3.36
C28A A46U U54G C73U C82G A90G C123U | -4.12
A27U G39U | -4.25
A27U G39C | -3.26
U30A G48C C124A | -5.2
C31A A121U | -3.46
C28A G63A | -5.86
C28G C40U G57U G63C | -4.66
C28G G42C G52C G69U G107A A108G C124G | -7.26
A29U U38G G45U G120A U129A | -4.85
C31U C94A C114U | -5.92
C31U G39A G69U G120U | -3.44
A27U G60U G61C | -5.43
C31U G127C | -3.6
U30C C40U G120C | -2.45
C28U C70A | -4.5
U30C G69A | -4.88
A27U C104U A111C G120C | -6.95
A27U U81C G120A G135A | -4.49
A29G U130G | -1.15
C28G C34G G110A G117U | -5.7
C31G G36U G44A A74U A108U U112G | -7.74
A27U U30A G61U C72U A84C C98G A111U | -8.22
C31A G44U G69A A100C U109G G135U | -6.04

Variant | polymerase ribozyme fitness (log ratio)
A29C G44C U92C | -5.1
C28U G44U C49U G63C G110A | -2.74
A29G G47A U55A C56G | -2.62
A29G C40U | -2.17
A29U G51C G120U | -3.96
C28A C72U C123U | -3.7
A29G C56U | -1.17
A29G G71A | -1.75
U30C G44U A50G C88U | -2.96
C31A G45U C115G | -6.15
C28G A83G U130C | -4.34
C28A G39U A83C C123U U133A | -4
C31U G135U | -4.94
U30A A111U | -4.14
C31U G120C | -2.93
A29U C53A | -1.37
U30G A95C U96C A105U A111C G120C | -6.71
A29G U32C A50U C73U | -2.14
C28U G52U C73G U78G G120U | -4.03
A29G U87A C104G A111U | -4.03
A29C A41G | -2.15
C28U G110A | 0.874
C28A C89U U112A | -1.62
A29G A46U G69U C86U | -2.23

Variant | polymerase ribozyme fitness (log ratio)
C28U G71C U87G | -3.85
A27U U55G C56A G61A C62G U112C G120U G128A U130C | -7.21
A29U A46G C115G | -2.96
A29U G117C | -3.48
C31G C70U C82G G117C | -7.1
A29G G63C C104U U106G | -1.63
A29G U87A | -1.67
A29G C49G G57C A121C | -0.725
A29C G61A A75U | -1.75
C28A G135U | -4.58
C31G G39U C72A U106A G120U | -6.88
C28U C49G A91U U106A | -5.37
C28A U54C U106C | -5.05
A29G A90C U92C | -3.09
C31U U32G G35U G61U A91C A121U | -7
A29U A84C U87C U112C | -0.813
U30A G48C G57A C124G | -4.73
A29U A119G | -0.662
A27U C62U A74G | -7.73
A29G G58C | -1.5
C31U G63A | -5.33
C31U U96G | -5.37
A29U G61C C72A | -1.68
C28U C64U G93U | -3.83

Variant | polymerase ribozyme fitness (log ratio)
C28U G60C | -3.11
C28U A41U G48A | -5.18
A29C C49U C72U | -4.03
A27U C76U | -3.39
C31G C72A | -6.86
U30C G61C C72U A95U | -4
C28U G69U | -0.614
C28U U112A G122A U129A | -6.54
C28U G61A | -1.12
C28U G61C | -4.7
A29U C94A C102G U109C U130C | -6.22
U30A G110U | -4.94
A27U G47A U125G | -2.83
C28A G42A G77C G110U | -1.22
C28U C56U | -1.85
C28A G71C | -5.69
C28U G44U C62U G63C G110C U126A U132C | -4.61
C28U G52U G120C | -2.81
C28U U112C U116A | -1.82
A29U A41C A119G C123G | -1.43
A29U G42C G69U A119U | -2.46
C31U G69U C98U A119G | -3.7
C28G G60U U130G | -2.82
C28U C101G | -5.15

Variant | polymerase ribozyme fitness (log ratio)
A29C C62G | -4.52
A29U C79A | -3.06
C28U G57U C86A A90G G93U U96G G113C A121U | -7.69
A29G C53G U106A G117C | -3.33
A29G G57U G128C | -3.73
C28U G71U | -2.6
A29C G57A C62U | -3.66
C31U A37G C115A | -4.73
C28U U106A | -0.471
A27U C72U U106G U129A G135U | -5.91
C31U C79G C124G | -5.57
A27U C49G U54C | -3.58
U30C G45U | -4.52
A29G C56G A91C U112A A121G G122C | -2.1
A29U G45A G47U | -4.18
C28A U78C A91U U106A G110U | 0.263
U30G A43C C101A U106C C115U U132A | -7.22
A29G C97A | -5.53
A29G A37G C88U A111C | -0.788
C28G C62G | -4.58
A29U C56U C73U | -1.33
C31G C56G A68U U81A C99G G110C | -7.68
C28G C82G C86A | -3.55
A27U G107A A121U G128U G135C | -3.88

Variant | polymerase ribozyme fitness (log ratio)
U30C G52C | -3.38
A29C A90G G113U C114U | -3.29
A29U U54G | -2.02
A29G A74U | -1.73
C31A G69U | -2.98
A27U G44A U129A | -6.51
A29U C70G | -3.31
A29U A46U U106A | -2.03
A29U G61A C73U | -1.74
C28G G61A G113C | -5.25
A29U G58A U106A | -1.28
C31U C70U | -4.33
C28A G61A G93A C123A | -3.78
A29U G69U C123A | -0.777
A29U A43C G44U C53G A111U U134A | -0.68
C31U C70A G113A C123G C124A | -7.42
C28U G52C C56G G120A | -2.52
C31U G71U C124G | -3.59
C31G C53A G71U G107C | -1.67
U30C G61A C79G | -4.69
A27U C79G G127U | -4.93
A29G G69C G120A | -2.54
A29C A46U U54G U78C G120U | -3.43
